The values that follow come from patent US20130123350, “NUCLEIC ACID MOLECULE CAPABLE OF BINDING TO c-MET AND USE THEREOF” (KANAGAWA PREFECTURAL HOSPITAL ORGANIZATION, published 2013).

In general, Kd refers to a measure of binding affinity in units of concentration.

Data set [1] deals with T1, rec-cMet (Recombinant Human HGF R/c-MET/Fc Chimera) (Homo sapiens, UniProt P08581;P08581 SEQ:1-283,SEQ:1-625). Put plainly: SPR; rec-cMet 175 nM. Conditions: tags: C-terminal HIEGRMD linker, human IgG Fc (100-330), 6xHis; R&D Systems; chain copies: 2 (inferred, Fc chimera). On the procedure:
(§1) Using these truncated RNA aptamers, the binding ability thereof to the rec-cMet was examined. The binding ability was analyzed using BIACORE (registered trademark) X (GE Healthcare) in accordance with its instructions for use, with the concentration of the rec-cMet being set to 175 nmol/L. Also, the binding ability of each of the RNA aptamers g1 and g1-trA was examined in the same manner. As a comparative example, the 40N was used, and the binding ability thereof was examined in the same manner.
In general terms: SPR reads the build-up and loss of mass on a sensor chip optically.

The target of data set [2] is T1, rec-cMet (Recombinant Human HGF …). Briefly: ELONA; high binding; 3' polyA20/biotin-polyT; also SPR FIG. 11. Conditions: tags: C-terminal HIEGRMD linker, human IgG Fc (100-330), 6xHis; R&D Systems; chain copies: 2 (inferred, Fc chimera). As to the method: (§2) An anti-IgG antibody (trade name: “Human IgG-Fc Antibody”, Bethyl Laboratories) was adsorbed on a 96-well plate (Iwaki, AGC Techno Glass Co., Ltd., Japan), and then was subjected to blocking using 1% bovine serum albumin. Subsequently, 50 μL of the 1 μg/mL rec-cMet was added to the plate. Further, Tris (20 mmol/L), sodium chloride (100 mmol/L), magnesium acetate (0.1 mmol/L) and Triton (registered trademark)-X100 (0.2%) were added to the plate so that their final concentrations would be as shown in the parentheses. The plate was incubated at room temperature for 3 hours, thus causing the rec-cMet to bind to the plate. After the incubation, the plate was washed three times with a washing solution. The composition of the washing solution was as follows: 20 mmol/L Tris, 100 mmol/L sodium chloride, 0.1 mmol/L magnesium acetate, and 0.2% Triton (registered trademark)-X100. As a control, incubation and washing were carried out in the same manner, except that 50 μL of the washing solution was added instead of 50 μL of the rec-cMet.
(§3) Next, a 20-mer polyadenine (poly A) was added to the 3′ end of each of the RNA aptamers. Thus, poly-A-added RNA aptamers were prepared. […] The plate was then washed, after which a 1-Step Ultra TMB substrate (Thermo Fisher Scientific Inc., USA) was added to the plate to cause color development, and the absorbance at 450 nm was measured.

Data set [3] addresses rec-NGFR (Recombinant Human NGF R/TNFRSF16/Fc Chimera) (Homo sapiens, UniProt P08138 SEQ:1-222). Briefly: ELONA; signal below 40N. The settings on record: tags: C-terminal DIEGRMD linker, human IgG Fc (100-330), 6xHis; R&D Systems; chain copies: 2 (inferred, Fc chimera). On the procedure:
(§4) Next, a 20-mer polyadenine (poly A) was added to the 3′ end of each of the RNA aptamers. Thus, poly-A-added RNA aptamers were prepared. Each of the poly-A-added RNA aptamers was denatured, and thereafter, the denatured poly-A-added RNA aptamer was mixed with a 20-mer biotinylated polythymine with its 5′ end being biotinylated (740 nmol/L), tRNA (100 μg/mL), and an RNase inhibitor (0.16 units/mL). As a result, complementary binding occurred between the poly A in the poly-A-added RNA aptamer and the polythymine (poly T) in the biotinylated polythymine, whereby a biotin-labeled RNA aptamer was produced. The biotin-labeled RNA aptamer was added to the plate, and the plate was incubated at 4° C. for 30 minutes. Subsequently, the plate was washed, and 0.1 μg/mL HRP-streptavidin (Thermo Fisher Scientific Inc., USA) was added thereto. The plate was then washed, after which a 1-Step Ultra TMB substrate (Thermo Fisher Scientific Inc., USA) was added to the plate to cause color development, and the absorbance at 450 nm was measured.
The binding ability of each of the RNA aptamers to the rec-NGFR was examined in the same manner as in Example 1, except that the rec-NGFR was bound to the plate. Also, as a comparative example, the 40N was used, and the binding ability thereof was examined in the same manner.

The target in data set [4] is T1, rec-cMet (Recombinant Human HGF …). Put plainly: ELONA; signal higher than g1. The settings on record: tags: C-terminal HIEGRMD linker, human IgG Fc (100-330), 6xHis; R&D Systems; chain copies: 2 (inferred, Fc chimera). On the procedure: as §2, §4
The binding ability of each of the RNA aptamers to the rec-cMet was examined in the same manner as in Example 1, except that the truncated RNA aptamers were used. Also, the binding ability of the RNA aptamer g1 was examined in the same manner.

The target is the same in data set [5]. Put plainly: ELONA; 3' polyA20/biotin-polyT; also SPR FIG. 11. The settings on record: tags: C-terminal HIEGRMD linker, human IgG Fc (100-330), 6xHis; R&D Systems; chain copies: 2 (inferred, Fc chimera). As to the method: as §2, §4
For data set [6] the target is unchanged. Put plainly: SPR; excellent binding; rec-cMet 60 nM. The settings on record: tags: C-terminal HIEGRMD linker, human IgG Fc (100-330), 6xHis; R&D Systems; chain copies: 2 (inferred, Fc chimera). An excerpt: (§5) The binding ability of each of the RNA aptamers to the rec-cMet was examined in the same manner as in Example 5, except that the fluorinated RNA aptamers were used. The concentration of the rec-cMet was set to 60 nmol/L. With the time point at which the introduction of the rec-cMet to the chip was started being 0 seconds, introduction of a buffer was started 60 seconds later. As a comparative example, the same negative control as in Example 6 was used.
(§6) FIG. 12 is a graph showing the binding ability of each of the RNA aptamers to the rec-cMet. In FIG. 12, the vertical axis indicates the signal intensity (RU) measured with BIACORE (registered trademark) X. The signal intensity shown in the graph is a value measured at the 60th second when the buffer was introduced. […] By fluorination, these RNA aptamers had acquired RNase resistance and they also maintained the bonding force to the c-Met. Thus, it can be seen that these fluorinated RNA aptamers are particularly suitable for use in vivo and in vitro. All the RNA aptamers maintained equivalent signal values subsequent to the 60th second. Thus, it was confirmed that no decrease in binding ability occurred.

The target is the same in data set [7]. Put plainly: ELONA; high binding; 3' polyA20 hybridised to biotin-polyT; 20 mM Tris, 100 mM NaCl, 0.1 mM Mg acetate, 4 C; also SPR FIG. 11. The settings on record: tags: C-terminal HIEGRMD linker, human IgG Fc (100-330), 6xHis; R&D Systems; chain copies: 2 (inferred, Fc chimera). On the procedure: as §2, §3
Data set [8] shares this target. Put plainly: ELONA; Table 2 misnumbers as SEQ 48; also SPR FIG. 11. Conditions: tags: C-terminal HIEGRMD linker, human IgG Fc (100-330), 6xHis; R&D Systems; chain copies: 2 (inferred, Fc chimera). As to the method:
as §2, §3

Data set [9] shares this target. Briefly: SPR; rec-cMet 175 nM; also ELISA signal above g1 (FIG. 7). Conditions: tags: C-terminal HIEGRMD linker, human IgG Fc (100-330), 6xHis; R&D Systems; chain copies: 2 (inferred, Fc chimera). As to the method: as §1
Data set [10] has the same target. Briefly: ELONA; high binding; Table 2 misnumbers as SEQ 47; also SPR FIG. 11. The settings on record: tags: C-terminal HIEGRMD linker, human IgG Fc (100-330), 6xHis; R&D Systems; chain copies: 2 (inferred, Fc chimera). As to the method: as §2, §3
Data set [11] shares this target. Briefly: ELONA; highest binding; Table 2 misnumbers as SEQ 46; also SPR FIG. 11. Conditions: tags: C-terminal HIEGRMD linker, human IgG Fc (100-330), 6xHis; R&D Systems; chain copies: 2 (inferred, Fc chimera). As to the method:
as §2, §3

Data set [12] has the same target. Put plainly: SPR; best fluorinated binder; rec-cMet 60 nM. Conditions: tags: C-terminal HIEGRMD linker, human IgG Fc (100-330), 6xHis; R&D Systems; chain copies: 2 (inferred, Fc chimera).
From the text: as §5, §6

T1 sequence (P08581 25-307, stated change not applied, chain 1 of 2): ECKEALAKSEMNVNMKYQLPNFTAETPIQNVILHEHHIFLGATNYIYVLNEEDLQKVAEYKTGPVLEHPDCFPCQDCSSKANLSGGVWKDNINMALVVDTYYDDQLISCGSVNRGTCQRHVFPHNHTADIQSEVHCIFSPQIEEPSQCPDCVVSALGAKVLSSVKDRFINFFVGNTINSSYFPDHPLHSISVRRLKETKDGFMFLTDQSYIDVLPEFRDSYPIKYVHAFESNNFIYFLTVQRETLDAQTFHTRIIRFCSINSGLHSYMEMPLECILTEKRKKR
T1 sequence (P08581 308-932, stated change not applied, chain 2 of 2): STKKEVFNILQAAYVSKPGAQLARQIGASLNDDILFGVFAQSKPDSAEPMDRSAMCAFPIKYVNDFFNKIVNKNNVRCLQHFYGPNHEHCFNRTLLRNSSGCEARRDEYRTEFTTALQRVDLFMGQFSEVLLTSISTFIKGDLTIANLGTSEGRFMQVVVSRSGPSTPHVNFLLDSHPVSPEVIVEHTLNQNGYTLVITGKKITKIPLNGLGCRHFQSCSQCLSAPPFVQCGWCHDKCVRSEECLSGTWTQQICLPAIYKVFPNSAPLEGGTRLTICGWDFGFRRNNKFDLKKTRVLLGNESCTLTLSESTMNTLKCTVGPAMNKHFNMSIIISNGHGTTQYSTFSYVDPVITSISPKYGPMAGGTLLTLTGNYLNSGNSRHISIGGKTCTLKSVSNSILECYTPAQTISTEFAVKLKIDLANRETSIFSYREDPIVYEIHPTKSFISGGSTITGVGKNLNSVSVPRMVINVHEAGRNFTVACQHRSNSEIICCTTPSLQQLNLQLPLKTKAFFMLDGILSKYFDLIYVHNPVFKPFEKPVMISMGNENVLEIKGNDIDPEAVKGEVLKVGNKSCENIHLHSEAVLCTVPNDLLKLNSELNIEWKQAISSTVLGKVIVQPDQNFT
Sequence of rec-NGFR (Recombinant Human NGF R/TNFRSF16/Fc Chimera) (P08138 29-250, change not shown): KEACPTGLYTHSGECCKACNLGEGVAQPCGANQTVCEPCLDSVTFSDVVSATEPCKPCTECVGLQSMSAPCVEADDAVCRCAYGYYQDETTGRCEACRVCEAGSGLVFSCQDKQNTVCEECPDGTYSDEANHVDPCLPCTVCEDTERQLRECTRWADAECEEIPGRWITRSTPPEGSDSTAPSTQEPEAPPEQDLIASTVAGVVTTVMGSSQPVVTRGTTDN

Take GGGUGAGAGUUUGACCAGCUAUUAAAUGGGUCGUGACUCA (ssRNA) [g1-miniC]: the binding result in data set [1] was “binds”.

GGGCUGAGAGUUUGACCAGCUAUUAAAUGGGUCGUGACUCAG (ssRNA) [g1-miniB]: in data set [1], the Kd is 26.4 nM.

B1: g5 (ssRNA)
RNA: GGGACGCUCACGUACGCUAAGCCCAACGAACAUUUUGAGUUUCCAGGCAGCUCAUAGACAUCAGUGCCUGGACGUGCAGU
Take B1: the binding result in data set [2] is reported as “binds”; in [3], “no binding”.

B2: g1-d5del (ssRNA)
RNA: GGGACGCUCACGUACGCUAAACACACUGAGAGUUUGACCAGCUAUUAAAUGGGUCGUGACUCAGUGCCUGGACGU
For B2, the binding result in [4] is reported as “binds”.

B3: g2 (ssRNA)
RNA: GGGACGCUCACGUACGCUAAACCCUGGCGAUCUCCGGCCGGAUACGGGAGAACGAGGUACUCAGUGCCUGGACGUGCAGU
On to B3, for which the figures for the binding result in [3] and in data set [5] were “no binding” and “binds”, respectively.

B4: g1-u20del (ssRNA)
RNA: GGGCACUGAGAGUUUGACCAGCUAUUAAAUGGGUCGUGACUCAGUGCCUGGACGUG
Turning to B4, in [4], the binding result is “binds”.

B5: g1-u10del (ssRNA)
RNA: GGGACGCUAAACACACUGAGAGUUUGACCAGCUAUUAAAUGGGUCGUGACUCAGUGCCUGGACGUGC
Turning to B5, the binding result in data set [4] is reported as “binds”.

B6: g25 2'-F (ssRNA)
RNA: GGGACGCUCACGUACGCUAAUAGCAACAGUUCCCAGAGGUGAUCAGGCAGCCUUAAGACAUCAGUGCCUGGACGUGCAGU
modifications: 2'-F on all C and U
Turning to B6, the binding result in data set [6] is reported as “binds”.

B7: g1 (ssRNA)
RNA: GGGACGCUCACGUACGCUAAACACACUGAGAGUUUGACCAGCUAUUAAAUGGGUCGUGACUCAGUGCCUGGACGUGCAGU
Regarding B7, the binding result is given as “no binding” in data set [3] and “binds” in data set [7].

B8: g3 (ssRNA)
RNA: GGGACGCUCACGUACGCUAAGGGCGAAACUGUCGUGACACGGUUUGACAUGCCGGCCUUAUCAGUGCCUGGACGUGCAGU
Take B8: the binding result in [3] was “no binding”; in data set [5] it was “binds”.

B9: g9 (ssRNA)
RNA: GGGACGCUCACGUACGCUAAGAUGUCUCAAUUGGUCGUGAUUGUGCUGACCACACGAACCUCAGUGCCUGGACGUGCAGU
With B9, the binding result is “no binding” in data set [3] and “binds” in data set [8].

B10: g4 (ssRNA)
RNA: GGGACGCUCACGUACGCUAAUACCGUGAUUCGGGGUGGUAUCCGGUGGACAUCCAGGUCGUCAGUGCCUGGACGUGCAGU
As to B10, the binding result in data set [3] is “no binding”; in data set [5], “binds”.

Consider GGGCACUGAGAGUUUGACCAGCUAUUAAAUGGGUCGUGACUCAGUG (ssRNA) [g1-trA], for which the Kd in data set [9] came to 8.18 nM.

B11: g29 2'-F (ssRNA)
RNA: GGGACGCUCACGUACGCUAAACGAGCCGUGAUUGGGUUGGCAACCCUGCUUAUGUGAGGAUCAGUGCCUGGACGUGCAGU
modifications: 2'-F on all C and U
For the molecule B11, the binding result in [6] is “binds”.

For the molecule GGGACUGAGAGUUUGACCAGCUAUUAAAUGGGUCGUGACUCAGU (ssRNA) [g1-miniA], the Kd in data set [1] was found to be 7.98 nM.

B12: g8 (ssRNA)
RNA: GGGACGCUCACGUACGCUAAGGGCACUUAAAACCAGACCGUGAUUUGCGGUUGGUCUCGCUCAGUGCCUGGACGUGCAGU
Consider B12, for which the binding result in data set [3] is listed as “no binding”; in [10], “binds”.

B13: g7 (ssRNA)
RNA: GGGACGCUCACGUACGCUAACUUGAAGUCAAGGGUAGAGUGACCAUGCAGCUCGUAGACAUCAGUGCCUGGACGUGCAGU
Take B13: the binding result is given as “no binding” in data set [3] and “binds” in [11].

B14: g38 2'-F (ssRNA)
RNA: GGGACGCUCACGUACGCUAACCAGGAGCAUUAGACCGGGGAAAGAAGGAGUACCGUCUGGUCAGUGCCUGGACGUGCAGU
modifications: 2'-F on all C and U
For B14, the binding result in [12] is listed as “binds”.

B15: g1-d10del (ssRNA)
RNA: GGGACGCUCACGUACGCUAAACACACUGAGAGUUUGACCAGCUAUUAAAUGGGUCGUGACUCAGUGCCUG
Take B15: the binding result in [4] is “binds”.
